This assay has as its target ERK2, P28482. Nature of the assay: fluorescence polarisation; competitive: complex of the MAPK with 50 nM Cf-RHDF at 60-80% complex formation titrated with increasing unlabeled peptide; 20 mM Tris pH 8.0, 100 mM NaCl, 0.05% Brij35, 2 mM TCEP; 384-well black plates; triplicates; constants are called Kd in Table 1 and Ki in the …. A general note: Fluorescence polarisation rises when a labelled molecule tumbles more slowly, as on binding a larger partner.

ERK2, P28482, sequence (P28482 whole entry): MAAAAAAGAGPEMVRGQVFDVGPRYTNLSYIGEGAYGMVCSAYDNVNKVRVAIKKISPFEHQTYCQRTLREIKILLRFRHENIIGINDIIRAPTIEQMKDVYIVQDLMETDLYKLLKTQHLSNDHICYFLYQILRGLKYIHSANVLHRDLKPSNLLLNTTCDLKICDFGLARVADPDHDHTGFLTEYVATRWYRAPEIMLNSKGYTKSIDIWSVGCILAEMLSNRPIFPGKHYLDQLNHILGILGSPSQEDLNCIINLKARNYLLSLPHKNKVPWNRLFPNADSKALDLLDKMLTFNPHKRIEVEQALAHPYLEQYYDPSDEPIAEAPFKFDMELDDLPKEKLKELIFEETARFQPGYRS

B1: octaarginine conjugate of the native RHDF1 sequence (peptide 2) (peptide)
chain 1: SLQRKKPPWLKLDIPSC
chain 2: RRRRRRRR
modifications: not checked
B1: the Kd is 600 nM.

What is called Kd is the constant that tells how readily two partners part at equilibrium. Low values mean tighter binding, high ones weaker binding.

For the origin of these results see PMC8281026, “Peptide Based Inhibitors of Protein Binding to the Mitogen-Activated Protein Kinase Docking Groove” (Frontiers in Molecular Biosciences, 2021).
